Measured values from publication PMC8100141.

Legend:
[1] = target: DENV3 NS5 wild type (Dengue virus serotype 3) (UniProt Q5UB51); experiment: fluorescence titration; details: all adenosines are 1,N6-ethenoadenosine; Fluorescence: 50 mM Tris-HCl pH 7.5, 100 mM NaCl, 1 mM MgCl2, 1 mM DTT, 10% glycerol; EMSA: 20 mM Tris pH 7.4, 150 mM NaCl, 2 mM MgCl2, 5% glycerol, room …
[2] = target: DENV3 NS5 wild type (Dengue virus serotype 3) (UniProt Q5UB51); experiment: fluorescence competition; details: Fluorescence: 50 mM Tris-HCl pH 7.5, 100 mM NaCl, 1 mM MgCl2, 1 mM DTT, 10% glycerol; EMSA: 20 mM Tris pH 7.4, 150 mM NaCl, 2 mM MgCl2, 5% glycerol, room …

DENV3 NS5 wild type (Dengue virus serotype 3), sequence (Q5UB51 2491-3390): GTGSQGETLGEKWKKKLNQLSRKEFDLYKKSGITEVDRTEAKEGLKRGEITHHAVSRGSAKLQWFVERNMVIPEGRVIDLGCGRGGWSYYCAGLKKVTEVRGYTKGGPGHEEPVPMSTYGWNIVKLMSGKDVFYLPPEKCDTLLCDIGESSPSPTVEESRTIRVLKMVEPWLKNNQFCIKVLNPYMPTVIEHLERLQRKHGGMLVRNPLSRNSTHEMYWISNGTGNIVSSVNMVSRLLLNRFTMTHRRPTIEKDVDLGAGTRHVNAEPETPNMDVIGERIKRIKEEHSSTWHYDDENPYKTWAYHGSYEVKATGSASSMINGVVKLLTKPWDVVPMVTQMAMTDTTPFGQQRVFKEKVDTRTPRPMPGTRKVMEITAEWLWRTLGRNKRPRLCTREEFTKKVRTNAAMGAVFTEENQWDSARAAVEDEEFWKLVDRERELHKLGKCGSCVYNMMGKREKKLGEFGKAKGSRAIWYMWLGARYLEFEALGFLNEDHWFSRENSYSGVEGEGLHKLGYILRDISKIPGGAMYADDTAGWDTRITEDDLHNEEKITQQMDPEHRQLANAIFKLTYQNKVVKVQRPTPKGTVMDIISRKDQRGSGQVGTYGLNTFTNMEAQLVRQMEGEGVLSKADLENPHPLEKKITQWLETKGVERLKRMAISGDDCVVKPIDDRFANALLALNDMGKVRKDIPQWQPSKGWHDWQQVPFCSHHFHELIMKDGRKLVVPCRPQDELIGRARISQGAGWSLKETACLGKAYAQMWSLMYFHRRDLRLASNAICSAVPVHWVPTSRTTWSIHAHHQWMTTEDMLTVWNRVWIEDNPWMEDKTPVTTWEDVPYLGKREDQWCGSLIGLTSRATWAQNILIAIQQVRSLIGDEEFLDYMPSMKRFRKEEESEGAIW

| Substance | Ka [1] [M⁻¹] | Ka [2] [M⁻¹] |
| --- | --- | --- |
| AAAAAAAAAAAAAAAAAAAA [εA(pεA)19] | 2.1e+06 | – |
| tRNA-SLADENV | – | 4.8e+06 |
